From the RNAGym collection of RNA variant scans (doi:10.1021/acssynbio.7b00057)

B1: Pistol ribozyme (parent)
chain: GGGUCGUUGUUCCAUAAUCGCGUGGAUAUGGCACGCAAGUUUCUACCGGGCACCGUAAAUGUCCGACUGGAGCCGUUCGGGCGGCUAUAAACAGACCUCAGGCCCGAAGCGUGGCGGCACCUGCCGCCGGUGGUAAAAAAGAUCGGAAGAGCACACGUCU

Variants of: B1
Assay: aptazyme ON/OFF ratio, guanine; higher = stronger switching; co-transcriptional cleavage with and without guanine

| Variant | aptazyme ON/OFF ratio |
| --- | --- |
| GGGUCGCAAUGGCAUAAUCGCGUGGAUAUGGCACGCAAGUUUCUACCGGGCACCGUAAAUGUCCGACUGGAGCCGUUCGGGCGGCUAUAAACAGACCUCAGGCCCGAAGCGUGGCGGCACCUGCCGCCGGUGGUAAAAAAGAUCGGAAGAGCACACGUCU [U7C U8A G9A U11G C12G] | 1.12 |
| GGGUCGCAAUGUCAUAAUCGCGUGGAUAUGGCACGCAAGUUUCUACCGGGCACCGUAAAUGUCCGACUGGAGCCGUUCGGGCGGCUAUAAACAGACCUCAGGCCCGAAGCGUGGCGGCACCUGCCGCCGGUGGUAAAAAAGAUCGGAAGAGCACACGUCU [U7C U8A G9A U11G C12U] | 1.37 |
| GGGUCGCAAUGAUAUAAUCGCGUGGAUAUGGCACGCAAGUUUCUACCGGGCACCGUAAAUGUCCGACUGGAGCCGUUCGGGCGGCUAUAAACAGACCUCAGGCCCGAAGCGUGGCGGCACCUGCCGCCGGUGGUAAAAAAGAUCGGAAGAGCACACGUCU [U7C U8A G9A U11G C12A C13U] | 1.09 |
| GGGUCGCAAUGAAAUAAUCGCGUGGAUAUGGCACGCAAGUUUCUACCGGGCACCGUAAAUGUCCGACUGGAGCCGUUCGGGCGGCUAUAAACAGACCUCAGGCCCGAAGCGUGGCGGCACCUGCCGCCGGUGGUAAAAAAGAUCGGAAGAGCACACGUCU [U7C U8A G9A U11G C12A C13A] | 1.19 |
| GGGUCGCAAUGAGAUAAUCGCGUGGAUAUGGCACGCAAGUUUCUACCGGGCACCGUAAAUGUCCGACUGGAGCCGUUCGGGCGGCUAUAAACAGACCUCAGGCCCGAAGCGUGGCGGCACCUGCCGCCGGUGGUAAAAAAGAUCGGAAGAGCACACGUCU [U7C U8A G9A U11G C12A C13G] | 1.21 |
| GGGUCGCAAUGUUAUAAUCGCGUGGAUAUGGCACGCAAGUUUCUACCGGGCACCGUAAAUGUCCGACUGGAGCCGUUCGGGCGGCUAUAAACAGACCUCAGGCCCGAAGCGUGGCGGCACCUGCCGCCGGUGGUAAAAAAGAUCGGAAGAGCACACGUCU [U7C U8A G9A U11G C12U C13U] | 1.18 |
| GGGUCGCAAUGUAAUAAUCGCGUGGAUAUGGCACGCAAGUUUCUACCGGGCACCGUAAAUGUCCGACUGGAGCCGUUCGGGCGGCUAUAAACAGACCUCAGGCCCGAAGCGUGGCGGCACCUGCCGCCGGUGGUAAAAAAGAUCGGAAGAGCACACGUCU [U7C U8A G9A U11G C12U C13A] | 1.16 |
| GGGUCGCAAUGUGAUAAUCGCGUGGAUAUGGCACGCAAGUUUCUACCGGGCACCGUAAAUGUCCGACUGGAGCCGUUCGGGCGGCUAUAAACAGACCUCAGGCCCGAAGCGUGGCGGCACCUGCCGCCGGUGGUAAAAAAGAUCGGAAGAGCACACGUCU [U7C U8A G9A U11G C12U C13G] | 1.14 |
| GGGUCGCAAUCCUAUAAUCGCGUGGAUAUGGCACGCAAGUUUCUACCGGGCACCGUAAAUGUCCGACUGGAGCCGUUCGGGCGGCUAUAAACAGACCUCAGGCCCGAAGCGUGGCGGCACCUGCCGCCGGUGGUAAAAAAGAUCGGAAGAGCACACGUCU [U7C U8A G9A U11C C13U] | 1.05 |
| GGGUCGCAAUCCAAUAAUCGCGUGGAUAUGGCACGCAAGUUUCUACCGGGCACCGUAAAUGUCCGACUGGAGCCGUUCGGGCGGCUAUAAACAGACCUCAGGCCCGAAGCGUGGCGGCACCUGCCGCCGGUGGUAAAAAAGAUCGGAAGAGCACACGUCU [U7C U8A G9A U11C C13A] | 1.04 |
| GGGUCGCAAUCCGAUAAUCGCGUGGAUAUGGCACGCAAGUUUCUACCGGGCACCGUAAAUGUCCGACUGGAGCCGUUCGGGCGGCUAUAAACAGACCUCAGGCCCGAAGCGUGGCGGCACCUGCCGCCGGUGGUAAAAAAGAUCGGAAGAGCACACGUCU [U7C U8A G9A U11C C13G] | 1.02 |
| GGGUCGCAAUGGAAUAAUCGCGUGGAUAUGGCACGCAAGUUUCUACCGGGCACCGUAAAUGUCCGACUGGAGCCGUUCGGGCGGCUAUAAACAGACCUCAGGCCCGAAGCGUGGCGGCACCUGCCGCCGGUGGUAAAAAAGAUCGGAAGAGCACACGUCU [U7C U8A G9A U11G C12G C13A] | 1.12 |
| GGGUCGCAAUGGUAUAAUCGCGUGGAUAUGGCACGCAAGUUUCUACCGGGCACCGUAAAUGUCCGACUGGAGCCGUUCGGGCGGCUAUAAACAGACCUCAGGCCCGAAGCGUGGCGGCACCUGCCGCCGGUGGUAAAAAAGAUCGGAAGAGCACACGUCU [U7C U8A G9A U11G C12G C13U] | 1.13 |
| GGGUCGCAAUGGGAUAAUCGCGUGGAUAUGGCACGCAAGUUUCUACCGGGCACCGUAAAUGUCCGACUGGAGCCGUUCGGGCGGCUAUAAACAGACCUCAGGCCCGAAGCGUGGCGGCACCUGCCGCCGGUGGUAAAAAAGAUCGGAAGAGCACACGUCU [U7C U8A G9A U11G C12G C13G] | 1.12 |
| GGGUCGCAAUGCCAUAAUCGCGUGGAUAUGGCACGCAAGUUUCUACCGGGCACCGUAAAUGUCCGACUGGAGCCGUUCGGGCGGCUAUAAACAGACCUCAGGCCCGAAGCGUGGCGGCACCUGCCGCCGGUGGUAAAAAAGAUCGGAAGAGCACACGUCU [U7C U8A G9A U11G] | 1.09 |
| GGGUCGCAAUGCUAUAAUCGCGUGGAUAUGGCACGCAAGUUUCUACCGGGCACCGUAAAUGUCCGACUGGAGCCGUUCGGGCGGCUAUAAACAGACCUCAGGCCCGAAGCGUGGCGGCACCUGCCGCCGGUGGUAAAAAAGAUCGGAAGAGCACACGUCU [U7C U8A G9A U11G C13U] | 1.25 |
| GGGUCGCAAUGCAAUAAUCGCGUGGAUAUGGCACGCAAGUUUCUACCGGGCACCGUAAAUGUCCGACUGGAGCCGUUCGGGCGGCUAUAAACAGACCUCAGGCCCGAAGCGUGGCGGCACCUGCCGCCGGUGGUAAAAAAGAUCGGAAGAGCACACGUCU [U7C U8A G9A U11G C13A] | 1.18 |
| GGGUCGCAAUGCGAUAAUCGCGUGGAUAUGGCACGCAAGUUUCUACCGGGCACCGUAAAUGUCCGACUGGAGCCGUUCGGGCGGCUAUAAACAGACCUCAGGCCCGAAGCGUGGCGGCACCUGCCGCCGGUGGUAAAAAAGAUCGGAAGAGCACACGUCU [U7C U8A G9A U11G C13G] | 1.04 |
